Experiment [1] deals with human plasma fibronectin (human) (UniProt P02751). Put plainly: cell-based or functional assay.
Experiment [2] has the same target. Put plainly: ITC, peptide injected into human plasma FN, PBS pH 7.4, 25 C, triplicate. On the set-up: ΔS: unit not given here.
In experiment [3] the target is EDA-containing cellular fibronectin made by human fibroblasts and human proximal tubular epithelial cells (human), P02751. Put plainly: cell-based or functional assay.

The results in this text go back to patent US20190142956A1.

A word on the Kd: it is the free concentration of one partner at which half of the binding sites on the other are occupied at equilibrium, for simple one-to-one binding.

Where no end group is shown, it is not given here.

Chain of EDA-containing cellular fibronectin made by human fibroblasts and human proximal tubular epithelial cells (human), P02751 (P02751 32-2477): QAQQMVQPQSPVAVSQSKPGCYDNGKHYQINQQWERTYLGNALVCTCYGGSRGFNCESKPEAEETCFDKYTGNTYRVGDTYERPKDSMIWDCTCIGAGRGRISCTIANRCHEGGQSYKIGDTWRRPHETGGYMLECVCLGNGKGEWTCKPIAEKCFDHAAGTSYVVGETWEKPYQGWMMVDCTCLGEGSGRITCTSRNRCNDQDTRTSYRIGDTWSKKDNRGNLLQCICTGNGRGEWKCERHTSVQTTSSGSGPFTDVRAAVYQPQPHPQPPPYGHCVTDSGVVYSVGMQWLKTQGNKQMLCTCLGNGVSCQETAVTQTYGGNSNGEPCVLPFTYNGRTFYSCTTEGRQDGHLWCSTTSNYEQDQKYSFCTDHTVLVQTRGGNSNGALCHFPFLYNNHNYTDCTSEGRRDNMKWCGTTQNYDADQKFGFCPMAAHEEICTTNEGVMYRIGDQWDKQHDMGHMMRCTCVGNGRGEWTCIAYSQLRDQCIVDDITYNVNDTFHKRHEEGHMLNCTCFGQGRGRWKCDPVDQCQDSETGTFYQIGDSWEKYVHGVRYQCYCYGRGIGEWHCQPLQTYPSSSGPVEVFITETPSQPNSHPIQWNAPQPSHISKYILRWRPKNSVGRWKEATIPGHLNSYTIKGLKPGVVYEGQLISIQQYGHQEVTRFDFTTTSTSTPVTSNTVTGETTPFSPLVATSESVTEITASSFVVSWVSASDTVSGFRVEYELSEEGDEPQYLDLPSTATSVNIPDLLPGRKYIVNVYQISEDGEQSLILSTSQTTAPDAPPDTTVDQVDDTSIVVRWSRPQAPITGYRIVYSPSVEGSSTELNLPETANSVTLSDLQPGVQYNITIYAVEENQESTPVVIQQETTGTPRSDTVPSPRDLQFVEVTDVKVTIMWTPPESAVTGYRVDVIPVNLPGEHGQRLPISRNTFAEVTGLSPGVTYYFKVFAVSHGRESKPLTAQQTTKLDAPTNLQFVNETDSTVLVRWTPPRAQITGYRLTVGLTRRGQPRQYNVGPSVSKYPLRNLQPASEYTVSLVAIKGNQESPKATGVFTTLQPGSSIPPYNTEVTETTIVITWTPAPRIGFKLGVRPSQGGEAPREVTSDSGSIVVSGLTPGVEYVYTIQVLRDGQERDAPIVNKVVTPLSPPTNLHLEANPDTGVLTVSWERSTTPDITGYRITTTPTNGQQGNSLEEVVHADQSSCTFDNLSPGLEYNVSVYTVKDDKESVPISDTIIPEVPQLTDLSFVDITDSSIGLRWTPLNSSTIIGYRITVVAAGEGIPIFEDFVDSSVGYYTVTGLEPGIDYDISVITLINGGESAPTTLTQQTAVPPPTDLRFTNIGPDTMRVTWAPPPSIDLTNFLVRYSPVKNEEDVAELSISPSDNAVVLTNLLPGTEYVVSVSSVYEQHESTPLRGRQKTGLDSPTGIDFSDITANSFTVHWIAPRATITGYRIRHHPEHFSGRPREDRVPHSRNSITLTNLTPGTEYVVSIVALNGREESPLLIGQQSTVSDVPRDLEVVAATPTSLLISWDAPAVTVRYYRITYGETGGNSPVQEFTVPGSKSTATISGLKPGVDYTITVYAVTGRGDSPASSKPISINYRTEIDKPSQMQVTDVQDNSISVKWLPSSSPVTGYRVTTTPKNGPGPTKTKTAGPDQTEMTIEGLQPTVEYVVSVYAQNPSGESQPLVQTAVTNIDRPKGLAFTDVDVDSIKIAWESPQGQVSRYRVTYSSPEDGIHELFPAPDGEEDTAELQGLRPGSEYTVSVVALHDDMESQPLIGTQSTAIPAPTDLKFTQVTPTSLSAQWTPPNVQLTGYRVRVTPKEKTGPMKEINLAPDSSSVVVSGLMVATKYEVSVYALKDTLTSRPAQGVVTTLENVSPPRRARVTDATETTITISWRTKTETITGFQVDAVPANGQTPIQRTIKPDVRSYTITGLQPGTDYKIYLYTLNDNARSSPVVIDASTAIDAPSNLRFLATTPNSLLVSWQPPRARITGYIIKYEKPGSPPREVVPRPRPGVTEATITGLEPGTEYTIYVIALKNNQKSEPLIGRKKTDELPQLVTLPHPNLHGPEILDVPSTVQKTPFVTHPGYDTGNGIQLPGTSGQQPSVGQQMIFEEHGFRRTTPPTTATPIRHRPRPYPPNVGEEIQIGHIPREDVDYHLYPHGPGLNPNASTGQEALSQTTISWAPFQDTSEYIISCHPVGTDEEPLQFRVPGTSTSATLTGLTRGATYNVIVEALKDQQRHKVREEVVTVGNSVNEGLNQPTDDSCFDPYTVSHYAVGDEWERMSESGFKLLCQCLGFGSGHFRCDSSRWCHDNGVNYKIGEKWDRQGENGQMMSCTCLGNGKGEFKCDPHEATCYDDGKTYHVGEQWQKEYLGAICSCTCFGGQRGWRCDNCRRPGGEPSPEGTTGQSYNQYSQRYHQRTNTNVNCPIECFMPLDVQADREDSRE

With 20 kDa PEG-FUD (peptide), in experiment [1], the IC50, inhibition of A488-FN fibrillogenesis lay in the range of 25 to 30 nM and the percent inhibition of A488-FN fibrillogenesis, doses up to 20 µM came to 60%. In experiment [2], the Kd came to 10 nM, the n was 1.63, the ΔG was -10 kcal/mol and the ΔH was -30 kcal/mol. The ΔS in experiment [2] is -66.
As to 10 kDa PEG-FUD (peptide), in experiment [2], the Kd worked out at 4.6 nM, the n was determined as 1.55, the ΔG is -11.4 kcal/mol and the ΔH is -34 kcal/mol. Moreover, in experiment [2], the ΔS was -74.
In the case of 40 kDa PEG-FUD (peptide), in experiment [2], the Kd was determined as 14.7 nM, the n was 1.43, the ΔG is -10.9 kcal/mol and the ΔH is -32.5 kcal/mol. For the same molecule, the ΔS in experiment [2] was -73.
In experiment [1], “functional upstream domain (FUD) peptide” registered an IC50, inhibition of A488-FN fibrillogenesis of 25 to 30 nM and a percent inhibition of A488-FN fibrillogenesis, doses up to 20 µM of 60%. In experiment [2], the Kd was 6 nM, the n was 1.59, the ΔG was -11.4 kcal/mol and the ΔH is -31 kcal/mol. Further, the ΔS in experiment [2] was -65.
KDQSPLAGESGETEYITEVYGNQQNPVDIDKKLPNETGFSGNMVETEDT [functional upstream domain (FUD) peptide] returned an IC50, inhibition of endogenous EDA+-fibronectin fibrillogenesis (human fibroblasts and HK-2 cells) in experiment [3] of 30 nM.
In turn, {mPEG 20 kDa}-KDQSPLAGESGETEYITEVYGNQQNPVDIDKKLPNETGFSGNMVETEDT (not fully specified) [20 kDa PEG-FUD] returned an IC50, inhibition of endogenous EDA+-fibronectin fibrillogenesis (human fibroblasts and HK-2 cells) in experiment [3] of 30 nM.
